In publication PMC9482650, “Quantitative fragmentomics allow affinity mapping of interactomes” (Nature Communications, 2022):

T1: APBA2_1, Q99767
T1 sequence (Q99767 563-664, limits assumed, looked up): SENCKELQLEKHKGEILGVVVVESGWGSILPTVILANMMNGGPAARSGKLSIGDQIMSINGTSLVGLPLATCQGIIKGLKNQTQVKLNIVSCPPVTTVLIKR

T2: APBA2_2, Q99767
T2 sequence (Q99767 654-744, limits assumed, looked up): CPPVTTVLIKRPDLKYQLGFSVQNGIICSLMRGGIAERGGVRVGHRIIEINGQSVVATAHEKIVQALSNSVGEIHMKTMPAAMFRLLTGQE

T3: GRIP1_7, Q9Y3R0
T3 sequence (Q9Y3R0 999-1096, limits assumed, looked up): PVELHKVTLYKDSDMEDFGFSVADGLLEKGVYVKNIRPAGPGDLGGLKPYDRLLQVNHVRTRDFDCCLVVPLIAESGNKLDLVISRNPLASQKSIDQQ

T4: LNX2_3, Q8N448
T4 sequence (Q8N448 463-564, limits assumed, looked up): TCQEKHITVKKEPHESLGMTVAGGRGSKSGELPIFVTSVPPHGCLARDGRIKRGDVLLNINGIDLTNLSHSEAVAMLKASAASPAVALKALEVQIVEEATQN

T5: MPP6, Q9NZW5
T5 sequence (Q9NZW5 125-219, limits assumed, looked up): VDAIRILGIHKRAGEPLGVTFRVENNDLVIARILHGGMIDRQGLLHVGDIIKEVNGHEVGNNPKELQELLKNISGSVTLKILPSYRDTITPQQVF

T6: MPP2, Q14168
T6 sequence (Q14168 180-250, limits assumed, looked up): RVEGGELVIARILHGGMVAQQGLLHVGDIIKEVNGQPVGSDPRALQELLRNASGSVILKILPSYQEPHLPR

T7: NHERF3_4, Q5T2W1
T7 sequence (Q5T2W1 373-468, limits assumed, looked up): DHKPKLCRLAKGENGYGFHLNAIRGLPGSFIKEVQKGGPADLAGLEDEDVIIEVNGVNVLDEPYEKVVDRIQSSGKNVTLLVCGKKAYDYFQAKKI

T8: DFNB31_1, Q9P202
T8 sequence (Q9P202 135-233, limits assumed, looked up): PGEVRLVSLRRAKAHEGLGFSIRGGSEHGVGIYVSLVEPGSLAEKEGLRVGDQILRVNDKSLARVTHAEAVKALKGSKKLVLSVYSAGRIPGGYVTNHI

T9: ARHGEF11, O15085
T9 sequence (O15085 42-136, limits assumed, looked up): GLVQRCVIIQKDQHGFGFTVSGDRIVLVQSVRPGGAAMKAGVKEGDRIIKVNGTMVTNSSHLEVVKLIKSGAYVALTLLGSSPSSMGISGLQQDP

T10: SNTB1, Q13884
T10 sequence (Q13884 107-205, limits assumed, looked up): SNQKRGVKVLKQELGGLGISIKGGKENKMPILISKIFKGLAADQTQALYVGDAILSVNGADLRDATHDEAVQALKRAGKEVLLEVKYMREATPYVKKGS

T11: GRIP1_2, Q9Y3R0
T11 sequence (Q9Y3R0 145-248, limits assumed, looked up): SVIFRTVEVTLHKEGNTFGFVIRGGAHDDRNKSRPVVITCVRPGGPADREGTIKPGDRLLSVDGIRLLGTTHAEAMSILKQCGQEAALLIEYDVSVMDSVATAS

T12: GRIP1_3, Q9Y3R0
T12 sequence (Q9Y3R0 247-346, limits assumed, looked up): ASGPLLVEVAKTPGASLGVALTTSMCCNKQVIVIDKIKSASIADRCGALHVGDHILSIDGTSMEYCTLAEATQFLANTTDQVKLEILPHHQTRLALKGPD

T13: DLG3_3, Q92796
T13 sequence (Q92796 374-475, limits assumed, looked up): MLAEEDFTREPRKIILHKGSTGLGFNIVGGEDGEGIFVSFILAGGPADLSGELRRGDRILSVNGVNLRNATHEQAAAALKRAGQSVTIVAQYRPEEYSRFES


Assays:
Assay in all cases: holdup assay
Parameters in all cases: key: below the threshold = too weak to quantify, mostly under pKd 3.1 to 4
Settings in all cases: plain residues with an end cap or a label only (N-terminal biotin on a linker: ado-ado)
[1] = target: T1, APBA2_1, Q99767
[2] = target: T2, APBA2_2, Q99767
[3] = target: T3, GRIP1_7, Q9Y3R0
[4] = target: T4, LNX2_3, Q8N448
[5] = target: TJP1_3, Q07157
[6] = target: GIPC2, Q8TF65
[7] = target: T5, MPP6, Q9NZW5
[8] = target: LNX1_3, Q8TBB1
[9] = target: T6, MPP2, Q14168
[10] = target: T7, NHERF3_4, Q5T2W1
[11] = target: NOS1, P29475
[12] = target: GRID2IP_1, A4D2P6
[13] = target: DLG1_3, Q12959
[14] = target: T8, DFNB31_1, Q9P202
[15] = target: DLG4_1, P78352
[16] = target: T9, ARHGEF11, O15085
[17] = target: IL16_4, Q14005
[18] = target: T10, SNTB1, Q13884
[19] = target: T11, GRIP1_2, Q9Y3R0
[20] = target: CASK, O14936
[21] = target: GORASP2, Q9H8Y8
[22] = target: T12, GRIP1_3, Q9Y3R0
[23] = target: MAST2, Q6P0Q8
[24] = target: T13, DLG3_3, Q92796

Chain of GIPC2, Q8TF65 (Q8TF65 112-203): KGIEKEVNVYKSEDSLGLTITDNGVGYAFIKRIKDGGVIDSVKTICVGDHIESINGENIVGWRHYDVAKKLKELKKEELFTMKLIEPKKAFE
Chain of CASK, O14936 (O14936 487-570): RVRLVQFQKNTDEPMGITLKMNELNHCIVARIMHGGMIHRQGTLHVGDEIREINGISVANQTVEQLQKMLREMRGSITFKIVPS
Chain of NOS1, P29475 (P29475 9-101): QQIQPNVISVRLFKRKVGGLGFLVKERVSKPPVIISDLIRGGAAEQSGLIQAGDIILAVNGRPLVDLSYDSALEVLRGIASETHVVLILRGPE
Chain of GRID2IP_1, A4D2P6 (A4D2P6 1-87): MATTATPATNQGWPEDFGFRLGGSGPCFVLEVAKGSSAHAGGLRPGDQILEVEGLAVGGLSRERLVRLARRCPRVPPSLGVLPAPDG
Chain of LNX1_3, Q8TBB1 (Q8TBB1 500-596): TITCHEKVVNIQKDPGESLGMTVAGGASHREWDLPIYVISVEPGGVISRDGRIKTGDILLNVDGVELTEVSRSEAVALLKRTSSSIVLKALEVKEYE
Chain of DLG1_3, Q12959 (Q12959 457-571): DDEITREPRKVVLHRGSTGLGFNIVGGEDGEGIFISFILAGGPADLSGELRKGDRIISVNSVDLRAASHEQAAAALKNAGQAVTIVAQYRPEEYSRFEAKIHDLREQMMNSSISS
Chain of TJP1_3, Q07157 (Q07157 416-512): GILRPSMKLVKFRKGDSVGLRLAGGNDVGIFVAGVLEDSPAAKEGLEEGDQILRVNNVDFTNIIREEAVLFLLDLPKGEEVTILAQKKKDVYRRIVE
Chain of MAST2, Q6P0Q8 (Q6P0Q8 1099-1202): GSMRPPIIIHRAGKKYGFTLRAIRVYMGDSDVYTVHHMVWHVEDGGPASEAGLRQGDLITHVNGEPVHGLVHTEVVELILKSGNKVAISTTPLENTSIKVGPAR
Chain of IL16_4, Q14005 (Q14005 1229-1329): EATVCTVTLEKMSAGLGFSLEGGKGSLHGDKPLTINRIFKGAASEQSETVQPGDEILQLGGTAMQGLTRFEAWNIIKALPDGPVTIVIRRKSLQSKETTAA
Chain of DLG4_1, P78352 (P78352 62-152): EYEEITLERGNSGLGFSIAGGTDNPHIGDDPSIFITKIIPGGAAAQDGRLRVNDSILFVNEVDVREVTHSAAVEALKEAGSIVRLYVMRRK

Row | Binder | pKd [1] | pKd [2] | pKd [3] | pKd [4] | pKd [5] | pKd [6] | pKd [7] | pKd [8] | pKd [9] | pKd [10] | pKd [11] | pKd [12] | pKd [13] | pKd [14] | pKd [15] | pKd [16] | pKd [17] | pKd [18] | pKd [19] | pKd [20] | other results
1 | VKRNSKETVV [MARCHF3, Q86UD3] | below the threshold | below the threshold | below the threshold | below the threshold | below the threshold | below the threshold | below the threshold | below the threshold | below the threshold | below the threshold | 4.03 | below the threshold | 4.32 | 3.64 | 5.48 | 4.04 | below the threshold | 5.19 | below the threshold | below the threshold | pKd [21]: 4.6; pKd [22]: below the threshold; pKd [23]: 4.68; pKd [24]: 4.7
2 | MQHQRTHTRV [ZSCAN30, Q86W11] | below the threshold | below the threshold | below the threshold | below the threshold | below the threshold | 3.48 | below the threshold | 3.53 | below the threshold | 3.51 | 3.91 | 3.57 | 3.81 | 3.81 | 4.59 | 4.3 | below the threshold | 4.15 | below the threshold | below the threshold | pKd [21]: 4.38; pKd [22]: below the threshold; pKd [23]: 5.21; pKd [24]: 4.3
3 | RQKEVRESKC [SCN8A, Q9UQD0] | below the threshold | below the threshold | below the threshold | below the threshold | below the threshold | 4.05 | below the threshold | below the threshold | below the threshold | below the threshold | below the threshold | below the threshold | 4.13 | 4.1 | below the threshold | below the threshold | 3.68 | 4.99 | below the threshold | below the threshold | pKd [21]: below the threshold; pKd [22]: below the threshold; pKd [23]: 4.82; pKd [24]: 3.58
4 | NIAESLESLV [PTPRZ1, P23471] | below the threshold | below the threshold | below the threshold | below the threshold | below the threshold | below the threshold | below the threshold | below the threshold | below the threshold | below the threshold | 3.92 | below the threshold | below the threshold | 3.8 | 4.65 | 3.67 | below the threshold | 4.68 | below the threshold | below the threshold | pKd [21]: below the threshold; pKd [22]: below the threshold; pKd [23]: 4.79; pKd [24]: below the threshold
5 | LESTTVGTSV [KARS1, Q15046] | below the threshold | below the threshold | below the threshold | below the threshold | below the threshold | below the threshold | below the threshold | below the threshold | below the threshold | below the threshold | 3.86 | below the threshold | 3.78 | 3.61 | 4.13 | 4.04 | below the threshold | 3.85 | below the threshold | below the threshold | pKd [21]: below the threshold; pKd [22]: below the threshold; pKd [23]: 5.02; pKd [24]: 3.6
6 | ILRKSTTTTV [PRR16, Q569H4] | below the threshold | below the threshold | below the threshold | below the threshold | below the threshold | below the threshold | below the threshold | below the threshold | below the threshold | below the threshold | below the threshold | below the threshold | 3.63 | below the threshold | 4.78 | 4.04 | 3.54 | 3.85 | below the threshold | below the threshold | pKd [21]: 4.73; pKd [22]: below the threshold; pKd [23]: 5.05; pKd [24]: 3.97
